This data set has as its system MS2 coat protein. In words: apparent KD of MS2 coat protein; designed switch direction (-1 OFF switch, 1 ON switch): -1; higher = weaker reporter binding. In short, it runs like this: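 Three titration conditions were used: no input, 200 uM small-molecule ligand, and an oligonucleotide input. In each, SNAP-549-labelled MS2 coat protein was raised from 0.7 or 1.5 nM, doubling, to 3 µM over designed RNA switches transcribed on Illumina chips by stalled E. coli RNA polymerase. Curve fits of normalised cluster fluorescence gave values whose per-design median over clusters is the apparent KD.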

The mark [1] stands for this setting: input ligand: microRNA oligo, concentration not stated.
The mark [2] stands for this setting: Eterna round: R95, input ligand: microRNA oligo, concentration not stated.
The mark [3] stands for this setting: Eterna round: R95, input ligand: FMN 200 uM.
Where [4] appears, read: Eterna round: R95, input ligand: none.

Results on 31 sequences are retold here after the supplement of paper PMC9170038.

In the case of “UUAAAUCAUGUAGGAUAUGCGUGGAGAAGCUAUGCAGAAGGACAUGAGGAUCACCCAUGUGCUUCCGUCUGAGAACAGACGGUA [Mat - Exclusion NG 1 - Mod of JL - D13] (Eterna round: R96, puzzle: Exclusion NG 1)”, the “apparent KD of MS2 coat protein” value amounted to 210 nM (input ligand: FMN 200 uM), 49.9 nM under setting [1] and 45.7 nM (input ligand: none).
Regarding “UUAAAUCAUGUAGGAUAUGCGUGGCGAAGCUAUGCAGAAGGACAUGAGGAUCACCCAUGUGCUAGCGUCUGCGUACAGAUGCAA [JL ENG1 1.11] (Eterna round: R96, puzzle: Exclusion NG 1)”, the “apparent KD of MS2 coat protein” value (input ligand: FMN 200 uM) came out at 189 nM, the “apparent KD of MS2 coat protein” value under setting [1] is 65.2 nM and the “apparent KD of MS2 coat protein” value (input ligand: none) amounted to 76.7 nM.
Consider “UCUUAUUGCAAGGAUAUGCAAUUUAUUUUUUAUGCAGAAGGUGCAACAUGAGGAUCACCCAUGUUUCCGGGCAU [JR_E6_Sub037] (puzzle: Exclusion 6)”, for which the “apparent KD of MS2 coat protein” value under setting [2] turned out to be 13.5 nM.
For “UUAAUGGCUGUGAGGAUAUCGGAUAGAUAGAUAUUCGAGAAGGCACAUGAGGAUCACCCAUGUGUGAUCAGAGA [Brourd's EX4 #62] (Eterna round: R97, puzzle: Brourd's mod of Exclusion 4)”, the “apparent KD of MS2 coat protein” value reads like this: (input ligand: FMN 200 uM) 466 nM; (input ligand: none) 144 nM.
Consider “AGGUGUAGAGGAUAUUGAGUUCUUUACAUGAGGAUCACCCAUGUCCUGGGCACCCAGGACCAAGAAGGCUACACCA [Omei Ex5 D31] (Eterna round: R97, puzzle: Exclusion 5)”, for which the “apparent KD of MS2 coat protein” value (input ligand: FMN 200 uM) amounted to 38.4 nM and the “apparent KD of MS2 coat protein” value (input ligand: none) worked out at 72.6 nM.
Regarding “UUUAAUUUUUUUUUUUUACAAGCUUUUUGCUCGUCUUAUACAUGAGGAUCACCCAUGUGAAUGGAGGGUAAAUUAUC [JMF 84] (puzzle: Sensor v3, turn-off variant 2)”, the “apparent KD of MS2 coat protein” value runs as follows: under setting [3], 19.4 nM; under setting [2], 42.5 nM; under setting [4], 16.8 nM.
“GCAGCAUUAGGAUAUUGCUAAUGUAACAUGAGGAUCACCCAUGUGUGUCGUUAUUACUUAUAAGAAGGAAUGUGCC [Eternabot (L2) Solution 88] (Eterna round: R97, puzzle: Exclusion 5)”: the “apparent KD of MS2 coat protein” value (input ligand: FMN 200 uM) amounted to 24.9 nM and the “apparent KD of MS2 coat protein” value (input ligand: none) was determined as 36.4 nM.
“AACGCUAAAGGAUAUACAUGAGGAUCACCCAUGUUGAGGAAGGUUAGAUGAGGAGUAAGUAGAAGGUUAGACGA [JR_Exclu3_Sub090] (puzzle: Exclusion 3)”: under setting [2], the “apparent KD of MS2 coat protein” value was determined as 23.7 nM.
For the sequence “CGAUGAGGAGUGAGGAUAUCGUGUUCGAAAGAACGUGAGAAGGCACAUGAGGAUCACCCAUGUGAUCCUCAUGG [Omei Ex4B A23] (Eterna round: R97, puzzle: Brourd's mod of Exclusion 4)”, the “apparent KD of MS2 coat protein” value (input ligand: FMN 200 uM) amounted to 1030 nM and the “apparent KD of MS2 coat protein” value (input ligand: none) was 164 nM.
In the case of “CUGAGCAGACGGAGAUCCAACAUGAGGAUCACCCAUGUCUCAUAAGCUUUUUGCUUGUCUUAUCCUCCUCUGUUCUC [Mariedxeor] (puzzle: Sensor v3, turn-off variant 1)”, the “apparent KD of MS2 coat protein” value is, setting by setting: under setting [3], 17.7 nM; under setting [2], 315 nM; under setting [4], 14.4 nM.
Turning to “CUAAAUCAUGUAGGAUAUGCAUAGCGAAGCUAUGCAGAAGGACAUGAGGAUCACCCAUGUUCUUCCGUCUGAGAACAGACGGAA [Mat - Exclusion NG 1 - Mod of JL - D32] (Eterna round: R96, puzzle: Exclusion NG 1)”, the “apparent KD of MS2 coat protein” value by setting is: (input ligand: FMN 200 uM) 164 nM; under setting [1], 21.1 nM; (input ligand: none) 32.5 nM.
For the sequence “UAAACAUGGAUAUAACAGUACAUGAGGAUCACCCAUGUUAAUACGAUAGAUUAUAACAAGCUUUUUUGUCGUCUUAA [Cooked Book] (Eterna round: R97, puzzle: Sensor, turn-off variant 1)”, the “apparent KD of MS2 coat protein” value is, setting by setting: (input ligand: FMN 200 uM) 116 nM; (input ligand: none) 85.4 nM.
The matching figures for “ACAUGUUGUCCAUGAUAUUACAUGAGGAUCACCCAUGUUAUUGUGAUUUUGAUGUGUAAGUUUGUUGCUCGUCUUAU [JR_STOV1_Sub063] (Eterna round: R97, puzzle: Sensor, turn-off variant 1)”: 29.8 nM and 29.4 nM.
For the sequence “GAGGAGCAAGGAUAUACGAGGAUAGGGAAGUGAGGAGAGUGACAUGAGGAUCACCCAUGUAGAAGGUGCAAGGG [JR_Exclu2_Sub094] (puzzle: Exclusion 2)”, the “apparent KD of MS2 coat protein” value was determined as 111 nM under setting [3], 89.4 nM under setting [2] and 190 nM under setting [4].
With “GUCACAUGGACAUAGGAUCACAUGAGGAUCACCCAUGUGACUAACAAGCUUUUUGCUCGUCUUAUGUCUAUGUGAAU [Stov1/16-A2] (Eterna round: R97, puzzle: Sensor, turn-off variant 1)”, the “apparent KD of MS2 coat protein” value (input ligand: FMN 200 uM) turned out to be 14 nM and the “apparent KD of MS2 coat protein” value (input ligand: none) was 14.3 nM.
The matching figures for “UAUUAGCAAGCGAGAUCCCACAUGAGGAUCACCCAUGUGCUCGUCUUAUAAAAGACUGUGACAAAAGUCACGGUCAC [Sensor 3, v1 - 91 v5] (Eterna round: R97, puzzle: Sensor, turn-off variant 1)”: 15.9 nM and 15.1 nM.
With “GGUCCACAUGAGGAUCACCCAUGUUAGGAUAUCUCGCCCGAGCCCAUAUGGGCCAGGCAGAGAAGGAAUGUGAA [Quertixees] (puzzle: Exclusion 1)”, under setting [2], the “apparent KD of MS2 coat protein” value amounted to 18.8 nM.
As to “AUAAUGUCAGGAUAUCGAACUUACUACUUCGGUAGUAAGUUCGAGAAGGGACAUGAGGAUCACCCAUGUGAUCA [E4/1-A4] (Eterna round: R97, puzzle: Exclusion 4)”, the “apparent KD of MS2 coat protein” value runs as follows: (input ligand: FMN 200 uM) 41.8 nM; (input ligand: none) 109 nM.
In the case of “CAUGUUGACAGAGGAUAUGCAAUGUGAUUUAGGGUAGAAGGCUGAGACAUGAGGAUCACCCAUGUGGGUGCGUUCUAGCGACAA [Atmala] (Eterna round: R96, puzzle: Exclusion NG 1)”, the “apparent KD of MS2 coat protein” value by setting is: (input ligand: FMN 200 uM) 150 nM; under setting [1], 19.4 nM; (input ligand: none) 34 nM.
Turning to “UUGGUUGUGGUAGGAUAUCCGUUGGAAACUGUUGGAGAAGGACCACAGUCACUGGGUCCUUGUUUGGUGGAGUGGAAGAACCAU [pwkr exNG1 F6.16] (Eterna round: R96, puzzle: Exclusion NG 1)”, the “apparent KD of MS2 coat protein” value by setting is: (input ligand: FMN 200 uM) 453 nM; under setting [1], 294 nM; (input ligand: none) 329 nM.
Take “AGUACUAACACGUGAGUGUUAGUACAAUAAGCUUGUGAAACAUGAGGAUCACCCAUGUCCUCAUAAGCUCGUCUUAU [salish99_TOv2_r3_061] (Eterna round: R96, puzzle: Sensor v3, turn-off variant 2)”: the “apparent KD of MS2 coat protein” value runs as follows: (input ligand: FMN 200 uM) 16.5 nM; under setting [1], 496 nM; (input ligand: none) 18.5 nM.
For the sequence “AAUAAUGAUAAGGAUAUCACUAGCUUCGGCUAGUGAGAAGGUAUCACAUGAGGAUCACCCAUGUGUUCCAAUAA [Ex6/6-A1] (Eterna round: R97, puzzle: Exclusion 6)”, the “apparent KD of MS2 coat protein” value is, setting by setting: (input ligand: FMN 200 uM) 38.1 nM; (input ligand: none) 18 nM.
Take “AGAGUGCUGCGAGGAUAUACAUGAGGAUCACCCAUGUUUACCUGUGAGGCAAAGCCUCACAGGUAGUAGAAGGCGCAGUACUCA [Mat - Exclusion NG 2 - Mod of JL - D43] (Eterna round: R96, puzzle: Exclusion NG 2)”: the “apparent KD of MS2 coat protein” value amounted to 14.6 nM (input ligand: FMN 200 uM), 14.3 nM under setting [1] and 12.3 nM (input ligand: none).
As to “CAACCACAUGAGGAUCACCCAUGUGAGGAUAUGAUACUAUGUACUUCGGUACAUAGUAUCAGAAGGCACAGGUG [Ex1-3: 60] (puzzle: Exclusion 1)”, under setting [2], the “apparent KD of MS2 coat protein” value amounted to 83.2 nM.
For “GUGCAAUGAGGAUAUACGUUGGUGAACAUCUGUGUGCUCCUACAUGAGGAUCACCCAUGUAGAAGGCAUGUCAC [LRO-Excl2-18] (puzzle: Exclusion 2)”, the “apparent KD of MS2 coat protein” value under setting [2] was found to be 11.3 nM.
For “GUCAGCUCGUCAGGAUAUACAUGCGUGCUUCGGCACGAAUUUAAGAUCACAUGAGGAUCACCCAUGUAGAAGGGACGAGCUGAC [ENG2/3-B1] (Eterna round: R96, puzzle: Exclusion NG 2)”, the “apparent KD of MS2 coat protein” value (input ligand: FMN 200 uM) was 741 nM, the “apparent KD of MS2 coat protein” value under setting [1] was 515 nM and the “apparent KD of MS2 coat protein” value (input ligand: none) was 534 nM.
For the sequence “GGUCUGCGAGGAUAUACAUGAGGAUCACCCAUGUGCGAGAUACUAGUGAGGUCGAUUGGUAGAAGGCGCGGACA [Mat - Exclusion 3 - Mod of JL D84] (puzzle: Exclusion 3)”, the “apparent KD of MS2 coat protein” value under setting [2] turned out to be 90.4 nM.
“CGGAUGUGAGGAUAUACAUGAGGAUCACCCAUGUGAGCCAGCUAGCUGACUGGCUCAUGUAGAAGGCACGUCUG [JL-ex3-2.15 Brourd mod] (puzzle: Exclusion 3)”: the “apparent KD of MS2 coat protein” value under setting [2] was found to be 42.2 nM.
For “UCUUCAGCCAAGUUCACAUACAUGAGGAUCACCCAUGUUGCGUAACGCAUGCAUAUCCUAGUUGCUCGUUCUACAGU [Eternabot (L1) Solution 6] (Eterna round: R97, puzzle: Sensor, turn-off variant 1)”, the “apparent KD of MS2 coat protein” value by setting is: (input ligand: FMN 200 uM) 26.4 nM; (input ligand: none) 33.1 nM.
Consider “UAAUAAAGUGUGAGGAUAUGCUGGUCCUUAGAUCAGCAGAAGGCACAUGAGGAUCACCCAUGUAAUAUAUAAAU [Mat - Exclusion 4 - JL Mod - D56] (puzzle: Brourd's mod of Exclusion 4)”, for which the “apparent KD of MS2 coat protein” value by setting is: under setting [3], 245 nM; under setting [2], 22.8 nM; under setting [4], 30.3 nM.
Consider “GCUAUGCAAGGAUAUACAAGAUUAUGACAAGCGUGGAAACGACAUGAGGAUCACCCAUGUAGAAGGUGUUAUGC [Eternabot (L2) Solution 56] (Eterna round: R97, puzzle: Exclusion 2)”, for which the “apparent KD of MS2 coat protein” value runs as follows: (input ligand: FMN 200 uM) 58.1 nM; (input ligand: none) 65.5 nM.
